Reference: the supplement of paper PMC6757056
± gives the standard deviation of the averaged measurements.

B1: library; a variant is named by its letters at N, in order (parent)
chain: GCUGUCACCGGUGUAUUACCCUAGUGGUCGACCGGUCUGAUGAGUCUNNNNNNAGACGAAACAGC

Experiments:
hypoxanthine [1] = variants of: B1; assay: FACS-Seq fitted mean relative fluorescence mCherry/BFP without ligand (log10 relative fluorescence); ligand: hypoxanthine (xanthine aptamer); higher = higher reporter protein expression; conditions: HEK293T, ligand present: no
Method in brief: (§1)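 Fluorescence is reported as a normalized fitted mean of sorted-bin read counts. Lentivirally transduced HEK293T libraries (mCherry ribozyme-switch reporter, EF1α-BFP marker) were enriched, treated with or without ligand for 48 h, and sorted into 6 mCherry/BFP bins for MiSeq sequencing of PCR-amplified genomic DNA. The normal fit was on log10(mCherry/BFP), scaled to five spiked-in control ribozymes.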

hypoxanthine [2] = variants of: B1; assay: normalized RNA/DNA level with ligand (relative to sTRSVctl = 100) (log10 (% of sTRSVctl)); ligand: hypoxanthine (xanthine aptamer); higher = less ribozyme self-cleavage, higher mRNA level; conditions: ligand concentration (+) RNA-Seq: 5 mM, HEK293T, reporter: mCherry (pCS4076), ligand present: yes
Method in brief: (§2)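 HEK293T cells received ligand, where used, 1 h before being transfected with 4 µg per 6-well well of library plasmids encoding reporter-linked ribozyme switches. After 72 h, RNA was extracted with EDTA and sequenced. RNA level was derived from RNA reads per DNA read, normalized to a spiked-in non-cleaving sequence or the top sequences, then scaled and log-transformed. Values were ×100 then log10, the top set was 25 sequences, and the minimum was 100 DNA reads.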

hypoxanthine [3] = variants of: B1; assay: normalized RNA/DNA level without ligand (relative to sTRSVctl = 100) (log10 (% of sTRSVctl)); ligand: hypoxanthine (xanthine aptamer); higher = less ribozyme self-cleavage, higher mRNA level; conditions: HEK293T, reporter: mCherry (pCS4076), ligand present: no
Method in brief: as §2

hypoxanthine [4] = variants of: B1; assay: FACS-Seq fitted mean relative fluorescence mCherry/BFP with ligand (log10 relative fluorescence); ligand: hypoxanthine (xanthine aptamer); ligand concentration (+) FACS-Seq: 5 mM; higher = higher reporter protein expression; conditions: HEK293T, ligand present: yes
Method in brief: as §1

In the case of GGGCCG, the “FACS-Seq fitted mean (log10)” value (hypoxanthine [1]) is reported as -0.0164 ± 0.068, the “normalized RNA/DNA level with ligand (log10)” value (hypoxanthine [2]) is reported as 1.98 ± 0.05 and the “normalized RNA/DNA level without ligand (log10)” value (hypoxanthine [3]) is reported as 1.923 ± 0.0046. The “FACS-Seq fitted mean (log10)” value (hypoxanthine [4]) was 0.175 ± 0.031.

AGGCCG was tested, and the “FACS-Seq fitted mean (log10)” value (hypoxanthine [1]) was 0.147 ± 0.0087, the “normalized RNA/DNA level with ligand (log10)” value (hypoxanthine [2]) was 1.89 ± 0.018 and the “normalized RNA/DNA level without ligand (log10)” value (hypoxanthine [3]) was 1.67 ± 0.054. The “FACS-Seq fitted mean (log10)” value (hypoxanthine [4]) was 0.366 ± 0.045.

For AGGCCU, the “FACS-Seq fitted mean (log10)” value (hypoxanthine [1]) was 0.421 ± 0.032, the “normalized RNA/DNA level with ligand (log10)” value (hypoxanthine [2]) was 1.94 ± 0.022 and the “normalized RNA/DNA level without ligand (log10)” value (hypoxanthine [3]) was 1.97 ± 0.069. For the same variant, the “FACS-Seq fitted mean (log10)” value (hypoxanthine [4]) was 0.554 ± 0.071.

With UGGCGA the “FACS-Seq fitted mean (log10)” value (hypoxanthine [1]) was 0.345 ± 0.039, the “normalized RNA/DNA level with ligand (log10)” value (hypoxanthine [2]) was 1.94 ± 0.031 and the “normalized RNA/DNA level without ligand (log10)” value (hypoxanthine [3]) was 1.65 ± 0.034. For the same variant, the “FACS-Seq fitted mean (log10)” value (hypoxanthine [4]) was 0.579 ± 0.11.

GGGCGG was tested, and the “FACS-Seq fitted mean (log10)” value (hypoxanthine [1]) was 0.372 ± 0.034, the “normalized RNA/DNA level with ligand (log10)” value (hypoxanthine [2]) was 1.9325 ± 0.00079 and the “normalized RNA/DNA level without ligand (log10)” value (hypoxanthine [3]) was 1.577 ± 0.0083. For the same variant, the “FACS-Seq fitted mean (log10)” value (hypoxanthine [4]) was 0.586 ± 0.017.

In the case of AGGCGG, the “FACS-Seq fitted mean (log10)” value (hypoxanthine [1]) is reported as 0.194 ± 0.017, the “normalized RNA/DNA level with ligand (log10)” value (hypoxanthine [2]) is reported as 1.841 ± 0.0031 and the “normalized RNA/DNA level without ligand (log10)” value (hypoxanthine [3]) is reported as 1.354 ± 0.01. The “FACS-Seq fitted mean (log10)” value (hypoxanthine [4]) was 0.536 ± 0.039.

AGGCGU was tested, and the “FACS-Seq fitted mean (log10)” value (hypoxanthine [1]) was 0.521 ± 0.063, the “normalized RNA/DNA level with ligand (log10)” value (hypoxanthine [2]) was 1.94 ± 0.02 and the “normalized RNA/DNA level without ligand (log10)” value (hypoxanthine [3]) was 1.67 ± 0.025. For the same variant, the “FACS-Seq fitted mean (log10)” value (hypoxanthine [4]) was 0.656 ± 0.01.

In the case of GGGCUA, the “FACS-Seq fitted mean (log10)” value (hypoxanthine [1]) is reported as 0.512 ± 0.024, the “normalized RNA/DNA level with ligand (log10)” value (hypoxanthine [2]) is reported as 2.01 ± 0.015 and the “normalized RNA/DNA level without ligand (log10)” value (hypoxanthine [3]) is reported as 1.943 ± 0.015. The “FACS-Seq fitted mean (log10)” value (hypoxanthine [4]) was 0.456 ± 0.011.

In the case of AGGCUA, the “FACS-Seq fitted mean (log10)” value (hypoxanthine [1]) is reported as 0.509 ± 0.0085, the “normalized RNA/DNA level with ligand (log10)” value (hypoxanthine [2]) is reported as 1.93 ± 0.031 and the “normalized RNA/DNA level without ligand (log10)” value (hypoxanthine [3]) is reported as 1.811 ± 0.0095. The “FACS-Seq fitted mean (log10)” value (hypoxanthine [4]) was 0.617 ± 0.057.

For GGGCUG, the “FACS-Seq fitted mean (log10)” value (hypoxanthine [1]) was 0.228 ± 0.058, the “normalized RNA/DNA level with ligand (log10)” value (hypoxanthine [2]) was 1.967 ± 0.0031 and the “normalized RNA/DNA level without ligand (log10)” value (hypoxanthine [3]) was 1.775 ± 0.0099. For the same variant, the “FACS-Seq fitted mean (log10)” value (hypoxanthine [4]) was 0.495 ± 0.026.

In the case of UGGCUG, the “FACS-Seq fitted mean (log10)” value (hypoxanthine [1]) is reported as 0.218 ± 0.011, the “normalized RNA/DNA level with ligand (log10)” value (hypoxanthine [2]) is reported as 2.02 ± 0.0097 and the “normalized RNA/DNA level without ligand (log10)” value (hypoxanthine [3]) is reported as 1.95 ± 0.04. For the same variant, the “FACS-Seq fitted mean (log10)” value (hypoxanthine [4]) was 0.298 ± 0.023.

With AGGCUG the “FACS-Seq fitted mean (log10)” value (hypoxanthine [1]) was 0.279 ± 0.011, the “normalized RNA/DNA level with ligand (log10)” value (hypoxanthine [2]) was 2 ± 0.04 and the “normalized RNA/DNA level without ligand (log10)” value (hypoxanthine [3]) was 1.78 ± 0.045. For the same variant, the “FACS-Seq fitted mean (log10)” value (hypoxanthine [4]) was 0.333 ± 0.014.

With UGGCUU the “FACS-Seq fitted mean (log10)” value (hypoxanthine [1]) was 0.674 ± 0.017, the “normalized RNA/DNA level with ligand (log10)” value (hypoxanthine [2]) was 1.97 ± 0.02 and the “normalized RNA/DNA level without ligand (log10)” value (hypoxanthine [3]) was 1.94 ± 0.03. The “FACS-Seq fitted mean (log10)” value (hypoxanthine [4]) was 0.66 ± 0.06.

With GGGGAA the “FACS-Seq fitted mean (log10)” value (hypoxanthine [1]) was 0.623 ± 0.047, the “normalized RNA/DNA level with ligand (log10)” value (hypoxanthine [2]) was 1.91 ± 0.032 and the “normalized RNA/DNA level without ligand (log10)” value (hypoxanthine [3]) was 1.66 ± 0.022. The “FACS-Seq fitted mean (log10)” value (hypoxanthine [4]) was 0.751 ± 0.032.

In the case of AGGGAA, the “FACS-Seq fitted mean (log10)” value (hypoxanthine [1]) is reported as 0.524 ± 0.1, the “normalized RNA/DNA level with ligand (log10)” value (hypoxanthine [2]) is reported as 1.86 ± 0.025 and the “normalized RNA/DNA level without ligand (log10)” value (hypoxanthine [3]) is reported as 1.68 ± 0.045. For the same variant, the “FACS-Seq fitted mean (log10)” value (hypoxanthine [4]) was 0.684 ± 0.034.

With AGGGAC the “FACS-Seq fitted mean (log10)” value (hypoxanthine [1]) was 0.0327 ± 0.041, the “normalized RNA/DNA level with ligand (log10)” value (hypoxanthine [2]) was 1.916 ± 0.017 and the “normalized RNA/DNA level without ligand (log10)” value (hypoxanthine [3]) was 1.7 ± 0.018. For the same variant, the “FACS-Seq fitted mean (log10)” value (hypoxanthine [4]) was -0.137 ± 0.14.

GGGGAG was tested, and the “FACS-Seq fitted mean (log10)” value (hypoxanthine [1]) was -0.274 ± 0.0067, the “normalized RNA/DNA level with ligand (log10)” value (hypoxanthine [2]) was 1.812 ± 0.0043 and the “normalized RNA/DNA level without ligand (log10)” value (hypoxanthine [3]) was 1.46 ± 0.013. For the same variant, the “FACS-Seq fitted mean (log10)” value (hypoxanthine [4]) was -0.0598 ± 0.036.

For AGGGAG, the “FACS-Seq fitted mean (log10)” value (hypoxanthine [1]) was -0.123 ± 0.041, the “normalized RNA/DNA level with ligand (log10)” value (hypoxanthine [2]) was 1.78 ± 0.086 and the “normalized RNA/DNA level without ligand (log10)” value (hypoxanthine [3]) was 1.4 ± 0.042. The “FACS-Seq fitted mean (log10)” value (hypoxanthine [4]) was 0.0991 ± 0.022.
